Like-named read-outs stand apart in the source and are kept apart here.
T1: GST-FLAG-LIN28A (human, UniProt Q9H9Z2 1-209)
T1 sequence: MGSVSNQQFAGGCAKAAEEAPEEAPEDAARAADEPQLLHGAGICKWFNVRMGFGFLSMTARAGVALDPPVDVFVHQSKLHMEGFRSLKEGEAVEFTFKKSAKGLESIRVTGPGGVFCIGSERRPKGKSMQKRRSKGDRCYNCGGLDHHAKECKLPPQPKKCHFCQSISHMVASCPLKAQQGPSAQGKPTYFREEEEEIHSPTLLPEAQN


Columns and labels:
GST-FLAG-p53 = GST-FLAG-p53 (human, UniProt P04637 1-393); test: fluorescence polarization
GST-FLAG-MSI2 [1] = molecular target: T2, GST-FLAG-MSI2 (human, UniProt Q96DH6 1-328); test: competition
T2 sequence (Q96DH6 whole entry): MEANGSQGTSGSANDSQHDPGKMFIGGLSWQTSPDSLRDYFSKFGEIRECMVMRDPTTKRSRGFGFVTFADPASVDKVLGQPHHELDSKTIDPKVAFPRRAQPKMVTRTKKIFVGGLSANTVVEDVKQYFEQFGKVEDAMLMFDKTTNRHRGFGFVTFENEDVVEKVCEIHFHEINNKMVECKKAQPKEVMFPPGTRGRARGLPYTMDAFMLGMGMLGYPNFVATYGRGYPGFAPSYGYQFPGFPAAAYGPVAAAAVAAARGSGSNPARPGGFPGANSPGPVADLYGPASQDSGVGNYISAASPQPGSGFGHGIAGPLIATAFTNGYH

GST-FLAG-MSI2 [2] = molecular target: T2, GST-FLAG-MSI2; test: competition; remark: listed apart in the source
GST-FLAG-MSI1 = GST-FLAG-MSI1 (human, UniProt O43347 1-362); test: competition
Sequence of GST-FLAG-MSI1 (O43347 whole entry): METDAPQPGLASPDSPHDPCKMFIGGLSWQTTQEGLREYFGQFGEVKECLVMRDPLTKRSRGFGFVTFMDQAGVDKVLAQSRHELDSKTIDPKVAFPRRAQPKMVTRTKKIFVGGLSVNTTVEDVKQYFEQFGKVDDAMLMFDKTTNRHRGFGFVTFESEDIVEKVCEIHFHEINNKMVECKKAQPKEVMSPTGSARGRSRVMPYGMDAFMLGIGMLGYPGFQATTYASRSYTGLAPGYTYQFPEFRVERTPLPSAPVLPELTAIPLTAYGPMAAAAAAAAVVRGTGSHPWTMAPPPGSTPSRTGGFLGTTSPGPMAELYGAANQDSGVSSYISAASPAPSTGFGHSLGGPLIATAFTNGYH

GST-FLAG-LIN28A = molecular target: T1, GST-FLAG-LIN28A; test: competition

Sequence of GST-FLAG-p53 (P04637 whole entry): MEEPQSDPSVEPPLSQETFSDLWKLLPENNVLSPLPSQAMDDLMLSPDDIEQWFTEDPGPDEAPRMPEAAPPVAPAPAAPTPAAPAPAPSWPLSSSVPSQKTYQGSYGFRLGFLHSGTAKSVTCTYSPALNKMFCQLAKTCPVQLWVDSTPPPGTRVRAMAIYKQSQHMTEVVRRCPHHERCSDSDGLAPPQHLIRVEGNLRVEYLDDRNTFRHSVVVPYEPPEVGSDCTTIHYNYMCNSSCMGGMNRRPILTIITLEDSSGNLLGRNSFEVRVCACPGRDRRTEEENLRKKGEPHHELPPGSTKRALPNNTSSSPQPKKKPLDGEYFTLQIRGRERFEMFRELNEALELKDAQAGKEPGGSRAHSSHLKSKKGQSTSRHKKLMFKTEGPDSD

Row | Binder | binding result (GST-FLAG-p53) | IC50 (GST-FLAG-MSI2 [1]) [nM] | IC50 (GST-FLAG-MSI2 [2]) [nM] | IC50 (GST-FLAG-MSI1) [nM] | IC50 (GST-FLAG-LIN28A) [nM]
1 | GUAGUAGU (ssRNA, 5' C9 spacer) [MSI FP oligo (Cy3-C9-Oligo #5)] | no binding |  |  |  | 
2 | GUAGUAGU (ssRNA) [MSI Oligo #5 (unlabeled MSI FP oligo)] |  | 1300 ± 200 | 4600 | 5600 | 500
